# B1: IL22-Fc fusion biotherapeutic (UTTR1147A) [modified: N-linked glycans with sialic acid; 8 N-linked glycosylation sites in the dimer (N21, N35, N64, N143 on each chain); N-linked glycans with sialic acid; 8 N-linked … (parent)
# chain 1: APISSHCRLDKSNFQQPYITNRTFMLAKEASLADNNTDVRLIGEKLFHGVSMSERCYLMKQVLNFTLEEVLFPQSDRFQPYMQEVVPFLARLSNRLSTCHIEGDDLHIQRNVQKLKDTVKKLGESGEIKAIGELDLLFMSLRNACI
# chain 2: HAPEDPSDLLQHVKFQSSNFENILTWDSGPEGTPDTVYSIEYKTYGERDWVAKKGCQRITRKSCNLTVETGNLTELYYARVTAVSAGGRSATKMTDRFSSLQHTTLKPPDVTCISKVRSIQMIVHPTPTPIRAGDGHRLTLEDIFHDLFYHLELQVNRTYQMHLGGKQREYEFFGLTPDTEFLGTIMICVPTWAKESAPYMCRVKTLPDRTWT
# Variants of: B1
# Assay: relative potency assay (method not named for this panel; measured in duplicate)
# Settings: with IL-22 RA1 extracellular domain (ECD)
row,ratio to parent,Variant
1,1.54,chain 1 APISSHCRLDKSNFQQPYITNRTFMLAKEASLADQNTDVRLIGEKLFHGVSMSERCYLMKQVLNFTLEEVLFPQSDRFQPYMQEVVPFLARLSNRLSTCHIEGDDLHIQRNVQKLKDTVKKLGESGEIKAIGELDLLFMSLRNACI
2,0.64,chain 1 APISSHCRLDKSNFQQPYITNRTFMLAKEASLADNNTDVRLIGEKLFHGVSMSERCYLMKQVLQFTLEEVLFPQSDRFQPYMQEVVPFLARLSNRLSTCHIEGDDLHIQRNVQKLKDTVKKLGESGEIKAIGELDLLFMSLRNACI
3,0.83,chain 1 APISSHCRLDKSNFQQPYITNRTFMLAKEASLADNNTDVRLIGEKLFHGVSMSERCYLMKQVLNFTLEEVLFPQSDRFQPYMQEVVPFLARLSNRLSTCHIEGDDLHIQRNVQKLKDTVKKLGESGEIKAIGELDLLFMSLRQACI

# — article PMC11021452, “Exposing the molecular heterogeneity of glycosylated biotherapeutics” (Nature Communications, 2024)
